Results from article PMC12361444.

Molecular target: HAdV-C5 hexon protein (human adenovirus C5) (UniProt P04133)
Sequence of UniProt P04133 (P04133 whole entry): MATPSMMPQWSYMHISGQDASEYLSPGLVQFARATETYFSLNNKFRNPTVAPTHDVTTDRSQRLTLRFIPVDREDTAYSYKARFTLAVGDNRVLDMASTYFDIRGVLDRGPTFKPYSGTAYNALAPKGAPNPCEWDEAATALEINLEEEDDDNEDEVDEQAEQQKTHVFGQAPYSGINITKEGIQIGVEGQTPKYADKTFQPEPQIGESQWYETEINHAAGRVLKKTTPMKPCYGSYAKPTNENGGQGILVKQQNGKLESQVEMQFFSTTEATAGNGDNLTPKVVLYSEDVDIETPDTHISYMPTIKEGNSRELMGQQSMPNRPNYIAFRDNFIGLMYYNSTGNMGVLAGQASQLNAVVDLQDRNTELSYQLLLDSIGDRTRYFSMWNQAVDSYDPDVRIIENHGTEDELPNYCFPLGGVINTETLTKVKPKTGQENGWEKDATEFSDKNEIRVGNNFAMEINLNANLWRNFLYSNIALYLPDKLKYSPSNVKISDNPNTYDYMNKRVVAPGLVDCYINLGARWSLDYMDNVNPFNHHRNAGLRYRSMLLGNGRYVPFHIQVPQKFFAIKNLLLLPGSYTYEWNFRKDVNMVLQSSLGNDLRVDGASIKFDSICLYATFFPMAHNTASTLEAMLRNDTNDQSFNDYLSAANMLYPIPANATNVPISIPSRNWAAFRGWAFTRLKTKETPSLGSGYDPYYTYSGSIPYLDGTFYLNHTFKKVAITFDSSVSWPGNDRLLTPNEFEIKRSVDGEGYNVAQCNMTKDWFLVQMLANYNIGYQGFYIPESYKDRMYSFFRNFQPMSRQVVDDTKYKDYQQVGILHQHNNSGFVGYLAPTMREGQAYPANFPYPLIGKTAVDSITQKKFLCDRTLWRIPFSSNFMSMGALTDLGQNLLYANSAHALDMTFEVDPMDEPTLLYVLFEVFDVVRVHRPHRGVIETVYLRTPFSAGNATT

Human lactoferricin 1-49 (peptide)
qPCR of cell-bound HAdV-C5 genomes on myoblasts (5000 vp/cell, 2 µM Lfcin, on ice 30 min), with versus without Lfcin: 20 fold
